Data published in US20230375537A1.

How the values were obtained:
[1] = biological target: HER2 (as partner of the 'natural' / 'original' dissociation constants) (UniProt P04626); test: natural dissociation constant of the bought molecule outside the sensor; method not stated
[2] = biological target: HER2 (as partner of the 'natural' / 'original' dissociation constants) (UniProt P04626); test: natural dissociation constant of the molecule outside the sensor; method not stated

Kd [1] [nM] | Kd [2] [nM] | Substance
0.032 |  | Anti-Her2 Affibody Molecule (anti-Her2 affibody molecule, Abcam) (designed binder)
 | 0.106 | Z342-EGFP-Histag (a molecule having a polyhistidine tag and an anti-HER2 affibody to which a fluorescence group EGFP is fused) (designed binder)
